B1: HDV Ribozyme (parent)
chain: GGCCGGCAUGGUCCCAGCCUCCUCGCUGGCGCCGGCUGGGCAACAUUCCGAGGGGACCGUCCCCUCGGUAAUGGCGAAUGGGACCCA

Variants of: B1
Test: self-cleavage, relative activity (ratio to wild type); higher = more cleavage; co-transcriptional

Variant | self-cleavage
GGCCGGCAUGUUCGCAGCCUCCUCGCUGGCGCCGGCUGGGCAACAUUCCGAGGGGACCGUCCCCUCGGUAAUGGCGAAUGGGACCCA | 0.0692
GGCCGGCAUGGUCCCAGCCUCCUCGCUGGCGCCGGCUGGGCAACAUUCCGAGGGGACCGUCCCCUCGGUAAUGGAGAAUGGCACCCA | 0.188
GGCCGGCAUGGUCCCAGCCUCCUCGCUGGAGCCGGCUGGGCAACAUUCCGAGGGGACCGUCCCCUCGCUAAUGGCGAAUGGGACCCA | 0.308
GGCCGGCAUGGUCCCAGCCUCCUCGCUGGCGCCGGCUGGGCAACAUACCGAGGGGACCGUCCCCCCGGUAAUGGCGAAUGGGACCCA | 0.8
GGCCGGCAUGGUCCCAGCCUCCUCGCUGGCGCCGGCUGGGCAACAUUCCGAGGGGACAGUCCCCUCGGCAAUGGCGAAUGGGACCCA | 1.17
GGCCGGCAUGGUCCCAGCCUCCUCGCUGACGCCGGCUGGGCAACAUUCCGAGGGGACCGUCCACUCGGUAAUGGCGAAUGGGACCCA | 0.147
GGCCGGCAUGGUCGCAGCCUCGUCGCUGGCGCCGGCUGGGCAACAUUCCGAGGGGACCGUCCCCUCGGUAAUGGCGAAUGGGACCCA | 0
GGCCGGCAUGGUCCCAGCCUCCUCGCUGGCGCCGUCUGGUCAACAUUCCGAGGGGACCGUCCCCUCGGUAAUGGCGAAUGGGACCCA | 0.12
GGCCGGCAUGGUCCCAGCCUCCUCGCUGGCGCCGGCUGGGCACCAUUCCGAGGGGACCGUCCCCUCGGUAAUGGCGAAUGGGACCUA | 0.649
GGCCGGCAUGGUCCCAGCCUCCUCGCUGGCGCCGGCUGGGCAACAUUCCGAGGGGACCGUCCCCUUGGCAAUGGCGAAUGGGACCCA | 0.92
AGCCGGCAUGGUCCCAGCCUCCUCGCUGGCGCCGGCUGGGGAACAUUCCGAGGGGACCGUCCCCUCGGUAAUGGCGAAUGGGACCCA | 0
GGCCGGCAUGGUCCCUGCCUCCUCGCUGGCGCUGGCUGGGCAACAUUCCGAGGGGACCGUCCCCUCGGUAAUGGCGAAUGGGACCCA | 0.684
GGCCGGCAUGGUCCCAGCCUCCUCGCUGGCGCCGGCUGGGCAACAUUCCGAGGGGACCGGCCCCUCGGCAAUGGCGAAUGGGACCCA | 1.09
GGCCGGCAUGGUCCCAGCCUCCUCGCUGGCGCCCGCUGGGCAACAUUCCGAGGGGACCGUCCCCUCGGUACUGGCGAAUGGGACCCA | 0.201
GGCCGGCGUGGUCCCAUCCUCCUCGCUGGCGCCGGCUGGGCAACAUUCCGAGGGGACCGUCCCCUCGGUAAUGGCGAAUGGGACCCA | 0.554
GGCCGGCAUGGUCCCAGCCUCCUCGCUGGCGCCGGUUGGGCAACAUUCCGAGGGAACCGUCCCCUCGGUAAUGGCGAAUGGGACCCA | 0.612
GGCCGGCAUGGUCCCAGCCUCCACGCUGGCGCCGGCUGGGCAACAUUCCGAGGGGACCGUCCCCUCGGUAAUGGCGAAUCGGACCCA | 0.101
GGCCGGCAUGGUCCCAGCCUCCUCGCUGGCGCCGGCUGGGCAACUUUCUGAGGGGACCGUCCCCUCGGUAAUGGCGAAUGGGACCCA | 0.706
GGCCGGCAUGGUCCGAGCCUCCUCGCUGGCGCCGGCUGGGCAACAUUCCGAGGGGACCGUCCCCUCGGUAAUGGCGGAUGGGACCCA | 0.332
GGCCGGCAUGGUCCCAGCCUCCUCGCUGGCACCGGCUGGGCAACAUUCCGAGGGGACCGUCCCCUCGUUAAUGGCGAAUGGGACCCA | 0.463
GGUCGGCAUGGUCCCAGCCUCCUCGCUGGCGCCGACUGGGCAACAUUCCGAGGGGACCGUCCCCUCGGUAAUGGCGAAUGGGACCCA | 0.694
GGCCGGCAUGGUCCCAGCCUCCUCGCUGGCGCCGGCUGGGCAACAUUUCGAGGGGACCGUCCCCUCGGUAAUGGAGAAUGGGACCCA | 0.199

Variant | self-cleavage
GGCCCGCAUGGUCCCAGCCUCCUCGCUGGCGCCGGCUGGGCAACAUUCCGAGCGGACCGUCCCCUCGGUAAUGGCGAAUGGGACCCA | 0.237
GGCCGGCAUGGUCCCAGCCUCCUCGCUGGCGCCGGCUGGGCAACAUUCCGAGAUGACCGUCCCCUCGGUAAUGGCGAAUGGGACCCA | 0.962
GGCCGGCAUGGUCCCAGCCUCCUCGCUGGCGCCGGCUUGGCAACAUUCCGAGGGGACCGUCCCCUCGGUAAUGGCGAAUGAGACCCA | 0.128
GGCCGGCAUGGUCCCAGCAUCCUCGCUGGCGCCGGGUGGGCAACAUUCCGAGGGGACCGUCCCCUCGGUAAUGGCGAAUGGGACCCA | 0.0923
GGCCGGCAUGGUCCCAGCCUCUUCGCUGGCGCCGGCUGGGCAACAUUCCGAGGGCACCGUCCCCUCGGUAAUGGCGAAUGGGACCCA | 0.642
GGCCGGCGUGGUCCCAGCCUCCUCGCUGGCGUCGGCUGGGCAACAUUCCGAGGGGACCGUCCCCUCGGUAAUGGCGAAUGGGACCCA | 0.609
GGCCGGCAUGGUCCCAGCCUCCUCGCUGGCGUCGGCUGGGCAACAUUCCGAGGGGACCGUCCCCUCGGUAAUGGCGAAUGGGCCCCA | 0.232
GGCCGGCAUGGUCCCAGCCUCCUCGCUGGCGCCGGCUGGGCAACAUUCCGACGGGACCGUCCCCUCGGUAAUGUCGAAUGGGACCCA | 0.312
GGCCGGCCUGGUCCCAGCCUCCUCGCUGGCGCCGGCUGGUCAACAUUCCGAGGGGACCGUCCCCUCGGUAAUGGCGAAUGGGACCCA | 0.345
GGCCGGCAUGGUCCCAGCCUCCUCGCUGGCGCCGGCUGGGCAACAUUCCGAGGGGACCGUCCCCUCGGUAAUGGCGAAUGGGACGCU | 0.785
GGCCGGCAUGGUCCCAGCCCCCACGCUGGCGCCGGCUGGGCAACAUUCCGAGGGGACCGUCCCCUCGGUAAUGGCGAAUGGGACCCA | 0.115
GGCCGGCAUGGCCCCAGCCUCCUCGCUGGCGCCGGCUGGGCAACAUUCCGAGGGGACCGUCCCCUCGGUUAUGGCGAAUGGGACCCA | 0.378
GGCCGGCAUGGUCCUAGCCUCCUCGCUGGCGCCGGCUGGGCAACAUUCCGAGGGGACCGUCCCCUCGGUUAUGGCGAAUGGGACCCA | 0.831
GGCCGGCAUGGUCCCAGUCUCCUCGCUGGCGCCGGCUGGGCAACAUUCCGAGGGGACCGUCCCCUGGGUAAUGGCGAAUGGGACCCA | 0.813
GGCCGGCAUGGUCCCAGCCUCCUCGCUCGCGCCGGCUGGGCAACAUUCCGAGGGGACCGUCCCCUCGGAAAUGGCGAAUGGGACCCA | 0.123
GGCCGGCAUGGUCCCAGCCUCCUCGCUGGCGCCGGCUGGGCAACAUUCCGAGGGGACCGUACCCUCGGUAACGGCGAAUGGGACCCA | 0.686
GGCCGGCAUGGUCCCAGCCUCCUCGCUGGCGCCGGCUGGGCAACAUCCCGAGGGGACCGUCCCCUCGUUAAUGGCGAAUGGGACCCA | 0.462
GGCCGGGAUGGUCCCAGCCUCCUCGCUGGCGCCGGCUGGGCAACAUUCCGAGGGGACCGUCCCCUCGGUAACGGCGAAUGGGACCCA | 0
GGCCGGCAUGGUACCAGCCUCCUCGCUGGCGCCGGCUGGGCAACAUUCCGAGGGGACCGUCCCCUCGGUAAUGGCGUAUGGGACCCA | 0.0739
UGCCGGCAUGGUCCCAGCCUCCUCGCUGGCGCCGGCAGGGCAACAUUCCGAGGGGACCGUCCCCUCGGUAAUGGCGAAUGGGACCCA | 0.584
GGCCCGCAUGGUCCCAGCCUCCUCGCUGGCGCCGGCUGGGCAACAUUCCGAGGGGACCGUCCCCUCGGUAAUGGCGAAUGGGACCUA | 0.172
GGCCGGCAUGGUCCCACCCUCCUCGCUGGCGCCGGCUGGGCAACAUUCCGAGGGGCCCGUCCCCUCGGUAAUGGCGAAUGGGACCCA | 0.302

Variant | self-cleavage
GGCCGGCAUGGUCCCAGCCUCCUCGCUGGCGCCGGCUGGGCAACAUCCCGAGGGGACCGUCCCGUCGGUAAUGGCGAAUGGGACCCA | 0.511
GGCCGGCAUGGUUCCAGCAUCCUCGCUGGCGCCGGCUGGGCAACAUUCCGAGGGGACCGUCCCCUCGGUAAUGGCGAAUGGGACCCA | 0.138
GGCCGGCAUGGUUCCAGCUUCCUCGCUGGCGCCGGCUGGGCAACAUUCCGAGGGGACCGUCCCCUCGGUAAUGGCGAAUGGGACCCA | 0.0475
GGCCGGCAUGGUCCCAGCCUCCUCGCUGGCGCCGGCCGGGCAACAUUCCGAGGGGACCGUCCCCUCGGUAAUGGCGAAUGGGACCCG | 1.09
GGCCGGCAUGGUCCCAGCCUCCUCGCUGGCGCCGGCUGGGCAACAUUCCGAGGGGACCGUCCACUCGGUAAUGGCGAAUUGGACCCA | 0.2
GGCCGGCAUGGUCCCAGCCUCCUCGCUGGCGCCGGCUGGGCAACAUUCGGAGGGGACCGUCCCCUCGGUAAUGGCGAAUGGGACCCG | 0.969
GGCAGGCAUGGUCCCAGCCUCCUCGCUGGCGCCGGCUGGGCGACAUUCCGAGGGGACCGUCCCCUCGGUAAUGGCGAAUGGGACCCA | 0.0875
GGCCGGCAUGGUCCCAGCCUCCUUGCUGGCGCCGGCUGGUCAACAUUCCGAGGGGACCGUCCCCUCGGUAAUGGCGAAUGGGACCCA | 0.337
GGCCGGCAUGGUCCCAGCCUCCUCGCGGGCGCCGGCUGGGCAACAUUCCGAGGGGACCGUCCGCUCGGUAAUGGCGAAUGGGACCCA | 0.532
GGCCCGCAUGGUCCCAGCCUCAUCGCUGGCGCCGGCUGGGCAACAUUCCGAGGGGACCGUCCCCUCGGUAAUGGCGAAUGGGACCCA | 0
GGCCGACAUGGUCCCAGCCUCCUCGCUGGCGCCGGCUGGGCACCAUUCCGAGGGGACCGUCCCCUCGGUAAUGGCGAAUGGGACCCA | 0.0489
GGGCGGCAUGGUCCCAGCCUCCUCGCUGGCGCCGGCUGGGCAACAUUCCGAGGGGACCGUCCCCUCGGUAAUGGCGCAUGGGACCCA | 0.233
GGCCGGCAUGGUCCCAGCCUCCUCGCUGGCGCCGGCUGGCCAAGAUUCCGAGGGGACCGUCCCCUCGGUAAUGGCGAAUGGGACCCA | 0.106
GGCCGGCAUGGUCCCAGCCUCCUCGCUGGCGCCGGCUGGCCAAAAUUCCGAGGGGACCGUCCCCUCGGUAAUGGCGAAUGGGACCCA | 0.0468
GGCCGGCAUGGUCCCAGCCUCCGCGCUGGCGCCGGCUGGGCAACAUUCCGAGGGGUCCGUCCCCUCGGUAAUGGCGAAUGGGACCCA | 0.759
UGCCGGCAUGGUCCCAGCCUCCUCGCUGGCGCCGGCUGGGCAACAUUCCGAGGGCACCGUCCCCUCGGUAAUGGCGAAUGGGACCCA | 0.455
GGCCGGCAUGGUCCCAGCCUCGUCGCUGGCGCCGGCUGGGGAACAUUCCGAGGGGACCGUCCCCUCGGUAAUGGCGAAUGGGACCCA | 0.0831
GGCCGGCAUGGUCCCAGCCUCCUCGCUGGCGCCGGCUGGGCAACAUUCCGAGGGGACCGUACCCUCGGUAAUCGCGAAUGGGACCCA | 0.415
GGCCGGCAUGGUCCCAGCCUCCUCGCUGGCGCCGGCCGGGCAACAUUCCGAGGGGACCGUCCCCUCGGUAAUGGCGAAUGGGUCCCA | 0.534
CGCCGGCAUGGUCCCAGCCUCCUCGCUGGCGCCGGCUGGGCAACAAUCCGAGGGGACCGUCCCCUCGGUAAUGGCGAAUGGGACCCA | 0.138
